Experimental data as given in patent US20190194291A1 (Hoffmann-La Roche, published 2019).

T1: cyCD19 ECD (cynomolgus, UniProt A0A2K5W8L9 20-292)
T1 construct: extracellular domain; also called cynomolgus CD19 extracellular domain; cynomolgus CD19
T1 sequence: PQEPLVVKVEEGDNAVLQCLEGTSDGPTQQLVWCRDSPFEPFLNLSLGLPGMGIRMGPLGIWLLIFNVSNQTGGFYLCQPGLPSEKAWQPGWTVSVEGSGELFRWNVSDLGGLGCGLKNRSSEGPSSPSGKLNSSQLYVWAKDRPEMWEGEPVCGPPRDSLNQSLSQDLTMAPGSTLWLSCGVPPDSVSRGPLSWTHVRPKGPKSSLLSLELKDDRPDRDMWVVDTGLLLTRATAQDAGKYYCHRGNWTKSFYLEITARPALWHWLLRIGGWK

T2: human CD19 (antigen of Table 9, construct not stated) (human, UniProt P15391 20-291, limits assumed)
T2 sequence: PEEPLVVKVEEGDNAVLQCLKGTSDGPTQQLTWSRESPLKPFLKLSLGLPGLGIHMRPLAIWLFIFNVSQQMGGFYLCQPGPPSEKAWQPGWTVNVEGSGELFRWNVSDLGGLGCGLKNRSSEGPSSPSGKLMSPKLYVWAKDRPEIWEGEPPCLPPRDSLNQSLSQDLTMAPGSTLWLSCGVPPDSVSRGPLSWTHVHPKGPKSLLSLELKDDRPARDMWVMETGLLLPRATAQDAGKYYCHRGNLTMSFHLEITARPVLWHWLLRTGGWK

T3: huCD19 ECD (human, UniProt P15391 20-291)
T3 construct: also called human CD19 extracellular domain
T3 sequence: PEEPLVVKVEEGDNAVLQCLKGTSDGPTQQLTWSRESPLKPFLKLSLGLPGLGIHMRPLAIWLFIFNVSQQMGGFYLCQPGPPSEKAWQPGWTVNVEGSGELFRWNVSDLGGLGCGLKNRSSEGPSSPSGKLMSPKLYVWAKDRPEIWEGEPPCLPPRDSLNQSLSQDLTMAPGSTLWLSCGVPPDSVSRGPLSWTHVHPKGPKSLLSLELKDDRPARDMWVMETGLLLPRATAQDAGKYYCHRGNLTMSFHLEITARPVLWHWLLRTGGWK

T4: human CEA expressed on MKN45 cells (human, UniProt P06731 35-685)
T4 construct: also called CEA-expressing human gastric adenocarcinoma cells (MKN45)
T4 sequence: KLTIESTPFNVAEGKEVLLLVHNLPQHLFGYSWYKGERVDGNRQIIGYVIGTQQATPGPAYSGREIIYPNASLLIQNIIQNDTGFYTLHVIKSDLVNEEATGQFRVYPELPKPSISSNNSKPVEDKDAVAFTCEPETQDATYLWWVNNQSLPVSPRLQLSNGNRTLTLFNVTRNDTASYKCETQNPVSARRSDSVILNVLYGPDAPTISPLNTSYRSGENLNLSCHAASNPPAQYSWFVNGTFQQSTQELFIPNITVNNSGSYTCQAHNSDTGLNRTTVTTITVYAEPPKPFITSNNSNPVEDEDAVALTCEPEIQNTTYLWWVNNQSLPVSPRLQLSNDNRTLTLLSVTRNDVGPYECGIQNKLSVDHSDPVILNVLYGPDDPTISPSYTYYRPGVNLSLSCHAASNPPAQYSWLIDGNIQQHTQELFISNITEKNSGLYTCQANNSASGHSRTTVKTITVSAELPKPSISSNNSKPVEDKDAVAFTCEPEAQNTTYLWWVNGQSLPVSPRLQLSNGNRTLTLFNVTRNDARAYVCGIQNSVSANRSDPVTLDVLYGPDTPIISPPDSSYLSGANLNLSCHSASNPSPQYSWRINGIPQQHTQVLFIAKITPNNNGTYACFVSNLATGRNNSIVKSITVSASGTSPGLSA

B1: wild-type humanized anti-human CD19 antibody 8B8 (antibody, V domains shown)
VH: QVQLVQSGAEVKKPGASVKVSCKASGYTFTDYIMHWVRQAPGQGLEWMGYINPYNDGSKYTEKFNGRVTMTSDTSISTAYMELSRLRSDDTAVYYCARGTYYYGSALFDYWGQGTTVTVSS
VL: DIVMTQTPLSLSVTPGQPASISCKSSQSLENSNGNTYLNWYLQKPGQSPQLLIYRVSKRFSGVPDRFSGSGSGTDFTLKISRVEAEDVGVYYCLQLTHVPYTFGQGTKLEIK
B2: humanized anti-human CD19 antibody clone 8B8-018 (antibody, V domains shown)
VH: QVQLVQSGAEVKKPGASVKVSCKASGYTFTDYIMHWVRQAPGQGLEWMGYINPYNDGSKYTEKFQGRVTMTSDTSISTAYMELSRLRSDDTAVYYCARGTYYYGSALFDYWGQGTTVTVSS
VL: DIVMTQTPLSLSVTPGQPASISCKSSQSLENPNGNTYLNWYLQKPGQSPQLLIYRVSKRFSGVPDRFSGSGSGTDFTLKISRVEAEDVGVYYCLQLTHVPYTFGQGTKLEIK
B3: parental humanized clone 8B8 (Fab in bacterial supernatant) (Fab, V domains shown)
VH: QVQLVQSGAEVKKPGASVKVSCKASGYTFTDYIMHWVRQAPGQGLEWMGYINPYNDGSKYTEKFQGRVTMTSDTSISTAYMELSRLRSDDTAVYYCARGTYYYGSALFDYWGQGTTVTVSS
VL: DIVMTQTPLSLSVTPGQPASISCKSSQSLENSNGNTYLNWYLQKPGQSPQLLIYRVSKRFSGVPDRFSGSGSGTDFTLKISRVEAEDVGVYYCLQLTHVPYTFGQGTKLEIK
notes: Soluble Fab with Flag tag from a phagemid, tested as bacterial supernatant; also called Parental 8B8; humanized parental clone 8B8
B4: affinity-matured 8B8-derived clone 2B11 (Fab in bacterial supernatant) (Fab, V domains shown)
VH: QVQLVQSGAEVKKPGASVKVSCKASGYTFTDYIMHWVRQAPGQGLEWMGYINPYNDGSKYTEKFQGRVTMTSDTSISTAYMELSRLRSDDTAVYYCARGTYYYGPQLFDYWGQGTTVTVSS
VL: DIVMTQTPLSLSVTPGQPASISCKSSQSLETSTGTTYLNWYLQKPGQSPQLLIYRVSKRFSGVPDRFSGSGSGTDFTLKISRVEAEDVGVYYCLQLLEDPYTFGQGTKLEIK
notes: Soluble Fab with Flag tag, tested as bacterial supernatant; also called 8B8-2B11
B5: Humanized variant 1 of T84.66 IgG (T84.66-LCHA) (antibody, V domains shown)
VH: QVQLVQSGAEVKKPGSSVKVSCKASGFNIKDTYMHWVRQAPGQGLEWMGRIDPANGNSKYVPKFQGRVTITADTSTSTAYMELSSLRSEDTAVYYCAPFGYYVSDYAMAYWGQGTLVTVSS
VL: EIVLTQSPATLSLSPGERATLSCRAGESVDIFGVGFLHWYQQKPGQAPRLLIYRASNRATGIPARFSGSGSGTDFTLTISSLEPEDFAVYYCQQTNEDPYTFGQGTKLEIK
notes: Tested as IgG

Assays:
cyCD19 ECD = molecular target: T1, cyCD19 ECD; experiment: binding to CD19 ECD, method not stated
[1] = molecular target: T2, human CD19 (antigen of Table 9, …); experiment: listed under the BIAcore KD; taken as half-life of the complex
huCD19 ECD = molecular target: T3, huCD19 ECD; experiment: binding to CD19 ECD, method not stated
[2] = molecular target: T2, human CD19 (antigen of Table 9, …); experiment: BIAcore (SPR), format not stated
[3] = molecular target: T5, monomeric human CD19 antigen Fc(kih) fusion molecule (human, UniProt P0DOX5 223-449 = IgG part); experiment: SPR (ProteOn XPR36): Fab from bacterial supernatant captured on anti-human Fab antibody, monomeric CD19-Fc 150-6 nM as analyte, 1:1 Langmuir fit
T5 construct: Heterodimeric Fc fusion with a single copy of the CD19 ectodomain; also called human CD19 Fc(kih); Recombinant human CD19
Experimental: In order to further characterize the ELISA-positive clones, the off-rate was measured by surface plasmon resonance and compared with the parental humanized clone 8B8.
For this experiment, 7000 RU of polyclonal anti-human Fab antibody were immobilized on all 6 channels of a GLM chip by Amine coupling (NaAcetate pH4.5, 25 μl/min, 240 s) (vertical orientation). Each antibody-containing bacterial supernatant was filtered and 2-fold diluted with PBS, and then injected for 360 s at 25 μl/minute to achieve immobilization levels of between 100 and 400 response units (RU) in vertical orientation. […] Regeneration was performed by two pulses of 10 mM glycine pH 1.5 and 50 mM NaOH for 30 s at 90 ul/min (horizontal orientation). Dissociation rate constants (koff) were calculated using a simple one-to-one Langmuir binding model in ProteOn Manager v3.1 software by simultaneously fitting the sensorgrams. […] The variable domains of the corresponding phagemids were sequenced.

[4] = molecular target: T4, human CEA expressed on MKN45 cells; experiment: flow cytometry on CEA-expressing MKN45 cells, PE anti-human IgG Fc detection
Experimental: The binding of different humanized variants of T84.66 IgG was tested on CEA-expressing human gastric adenocarcinoma cells (MKN45, DSMZ ACC 409).
Cells were harvested, counted, checked for viability and re-suspended at 2×10⁶ cells/ml in FACS buffer (100 μl PBS 0.1% BSA). […] Binding curves and EC50 values were obtained and calculated using GraphPadPrism5.

Binder | EC50 (cyCD19 ECD) [µg/mL] | koff [3] [s⁻¹] | other results
B1 | 0.313 | – | –
B2 | 0.255 | – | t1/2 [1]: 43.6 min; EC50 (huCD19 ECD): 0.084 µg/mL; Kd [2]: 6 nM
B3 | – | 0.000301 | –
B4 | – | 4.37e-06 | –
B5 | – | – | EC50 [4]: 1.5 µg/mL
